Experimental data: publication PMC1240114

Molecular target: tFKBP*3R (UniProt P62942 2-108, F37V;M50R;E55R;T86R)
Test: filter binding

tFKBP*3R, sequence (P62942 2-108 F37V/M50R/E55R/T86R): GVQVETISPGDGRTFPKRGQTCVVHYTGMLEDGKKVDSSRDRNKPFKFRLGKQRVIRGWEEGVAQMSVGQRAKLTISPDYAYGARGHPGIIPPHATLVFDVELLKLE

B1: s23 U74C (structured_RNA)
RNA: GGGCAUUGGAUCGCAUUGUCAUUUCAUUGUGGCGGUGCAGUCAAAUGUGAUGCUUCGUUCAGUGACGGGAGGGCUGUGAGUGGUCUGAACGUAAGC
Kd: 10.8 ± 3.8 nM
